Test results as given in patent US20030157553A1 (published 2003).

Biological target: T1, phosphorylated β2-adrenergic receptor (agonist-activated) (UniProt P07550 1-413, limits assumed, phosphorylated (sites and kinase not stated for the experiment))
T1 construct: Phosphorylated form of the purified, reconstituted β2AR; also called P-β2AR
Assay: agonist affinity shift assay, [125I]iodopindolol displacement by agonist with saturating (1 µM) purified arrestin, P-β2AR
Protocol: Agonist Affinity ShiftAssay—P-β₂AR or β₂AR (10-15 fmol/assay) was incubated in 0.25 ml of 10 mM Tris-HCl, pH 7.4, 100 mM NaCl (buffer A) containing 0.1 mg/ml bovine serum albumin in the presence of 65-75 fmol of [¹²⁵I] iodopindolol (NEN Life Science Products) and the indicated concentrations of arrestins and agonists for 60 min at 22° C. Samples were then cooled on ice and loaded at 4° C. onto 2 ml of Sephadex G-50 columns. Receptor-containing liposomes with bound radioligand were eluted with buffer A (between 0.6 and 1.5 ml), and radioactivity was quantitated in a liquid scintillation counter. Nonspecific binding was determined in the presence of 10 μM alprenolol. All experiments were repeated two to three times, and data are presented as means ±S.D.
It was recently reported that arrestin-receptor complex is similar to G protein-receptor complex in two respects: agonists have higher affinity for arrestin-receptor complex than for receptor alone, and only a fraction of the receptors forms such a high agonist affinity complex (HAC) even at saturating concentrations of arrestin (Gurevich et al. (1997) supra). The maximum percentage of the receptor in HAC gives a good estimate of the propensity of a given arrestin protein to bind tightly to the receptor (arrestin competency) Gurevich et al. (1997) supra)). […]

Row | percentage of receptor in high agonist affinity complex (HAC) [%] | Binder
1 | 31 | wild type bovine β-arrestin (other, Full-length wild type from construct pBARR; also called wild type β-arrestin; bovine β-arrestin 1A) MGDKGTRVFKKASPNGKLTVYLGKRDFVDHIDLVEPVDGVVLVDPEYLKERRVYVTLTCAFRYGREDLDVLGLTFRKDLFVANVQSFPPAPEDKKPLTRLQERLIKKLGEHAYPFTFEIPPNLPCSVTLQPGPEDTGKACGVDYEVKAFCAENLEEKIHKRNSVRLVIRKVQYAPERPGPQPTAETTRQFLMSDKPLHLEASLDKEIYYHGEPISVNVHVTNNTNKTVKKIKISVRQYADICLFNTAQYKCPVAMEEADDTVAPSSTFCKVYTLTPFLANNREKRGLALDGKLKHEDTNLASSTLLREGANREILGIIVSYKVKVKLVVSRGGLLGDLASSDVAVELPFTLMHPKPKEEPPHREVPEHETPVDTNLIELDTNDDDIVFEDFARQRLKGMKDDKEEEEDGTGSPRLNDR
2 | 52 | β-arrestin-(Arg169→Glu) (other, Bovine β-arrestin point mutant made in pBARR) MGDKGTRVFKKASPNGKLTVYLGKRDFVDHIDLVEPVDGVVLVDPEYLKERRVYVTLTCAFRYGREDLDVLGLTFRKDLFVANVQSFPPAPEDKKPLTRLQERLIKKLGEHAYPFTFEIPPNLPCSVTLQPGPEDTGKACGVDYEVKAFCAENLEEKIHKRNSVRLVIEKVQYAPERPGPQPTAETTRQFLMSDKPLHLEASLDKEIYYHGEPISVNVHVTNNTNKTVKKIKISVRQYADICLFNTAQYKCPVAMEEADDTVAPSSTFCKVYTLTPFLANNREKRGLALDGKLKHEDTNLASSTLLREGANREILGIIVSYKVKVKLVVSRGGLLGDLASSDVAVELPFTLMHPKPKEEPPHREVPEHETPVDTNLIELDTNDDDIVFEDFARQRLKGMKDDKEEEEDGTGSPRLNDR
